# Assays:
# [1] = molecular target: Aleutian mink disease virus (AMDV) capsid protein VP2 (Aleutian mink disease virus (AMDV)); assay: cryo-EM structure
# [2] = molecular target: Human parvovirus 4 (PARV4) capsid protein VP2 (human parvovirus 4 (PARV4)); assay: cryo-EM structure
Substance,stoichiometry N [1],stoichiometry N [2]
Aleutian mink disease virus (AMDV) capsid protein VP2 (natural protein),60,
Human parvovirus 4 (PARV4) capsid protein VP2 (natural protein),,60

# From publication PMC9612331
